Measured values as given in patent US20250262210A1 (TRUSTEES OF COLUMBIA UNIVERSITY IN THE CITY OF NEW YORK, published 2025).

Molecular target: T1, NCAPG2 (human, UniProt Q86XI2 1-1143, limits assumed)
T1 sequence (looked up): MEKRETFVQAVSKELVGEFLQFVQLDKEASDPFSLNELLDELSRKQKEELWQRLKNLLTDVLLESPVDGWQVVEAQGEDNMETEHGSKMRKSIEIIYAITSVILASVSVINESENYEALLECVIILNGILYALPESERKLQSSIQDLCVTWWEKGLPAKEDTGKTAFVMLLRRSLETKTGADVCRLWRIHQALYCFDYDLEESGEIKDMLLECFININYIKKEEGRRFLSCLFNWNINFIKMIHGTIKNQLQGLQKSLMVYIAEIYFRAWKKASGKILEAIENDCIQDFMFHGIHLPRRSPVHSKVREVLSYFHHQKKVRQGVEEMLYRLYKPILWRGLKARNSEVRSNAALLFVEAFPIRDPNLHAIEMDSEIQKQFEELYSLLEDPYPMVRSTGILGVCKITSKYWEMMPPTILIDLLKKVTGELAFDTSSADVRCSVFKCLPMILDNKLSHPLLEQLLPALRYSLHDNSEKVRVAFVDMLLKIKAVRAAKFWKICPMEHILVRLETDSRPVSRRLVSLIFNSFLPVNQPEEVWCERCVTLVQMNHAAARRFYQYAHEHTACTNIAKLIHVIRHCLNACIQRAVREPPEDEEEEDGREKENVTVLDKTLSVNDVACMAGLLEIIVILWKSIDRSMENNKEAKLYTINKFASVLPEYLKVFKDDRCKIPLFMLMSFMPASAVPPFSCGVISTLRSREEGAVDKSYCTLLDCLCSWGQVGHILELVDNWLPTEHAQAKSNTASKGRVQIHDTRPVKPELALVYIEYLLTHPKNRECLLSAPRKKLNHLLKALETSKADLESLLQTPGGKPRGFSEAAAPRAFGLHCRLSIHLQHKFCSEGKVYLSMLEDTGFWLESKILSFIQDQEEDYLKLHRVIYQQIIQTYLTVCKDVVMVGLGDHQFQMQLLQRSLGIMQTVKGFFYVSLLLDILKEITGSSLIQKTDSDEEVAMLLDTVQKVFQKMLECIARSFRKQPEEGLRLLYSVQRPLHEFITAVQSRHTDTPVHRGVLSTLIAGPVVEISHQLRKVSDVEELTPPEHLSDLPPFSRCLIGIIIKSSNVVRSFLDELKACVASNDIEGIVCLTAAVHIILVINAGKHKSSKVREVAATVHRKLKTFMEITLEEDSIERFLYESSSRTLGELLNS
Experiment: IP/MS, LZTR1 R810W-FLAG, U87
How it was run: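 Read-out: spectral counts from LC-MS/MS (Orbitrap Fusion) after MaxQuant identification. Variable modifications were Met oxidation, protein N-terminal acetylation and N/Q deamidation.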

B1: LZTR1 R810W-FLAG (other, human, UniProt Q8N653 1-840, looked up)
chain: MAGPGSTGGQIGAAALAGGARSKVAPSVDFDHSCSDSVEYLTLNFGPFETVHRWRRLPPCDEFVGARRSKHTVVAYKDAIYVFGGDNGKTMLNDLLRFDVKDCSWCRAFTTGTPPAPRYHHSAVVYGSSMFVFGGYTGDIYSNSNLKNKNDLFEYKFATGQWTEWKIEGRLPVARSAHGATVYSDKLWIFAGYDGNARLNDMWTIGLQDRELTCWEEVAQSGEIPPSCCNFPVAVCRDKMFVFSGQSGAKITNNLFQFEFKDKTWTRIPTEHLLRGSPPPPQRRYGHTMVAFDRHLYVFGGAADNTLPNELHCYDVDFQTWEVVQPSSDSEVGGAEVPERACASEEVPTLTYEERVGFKKSRDVFGLDFGTTSAKQPTQPASELPSGRLFHAAAVISDAMYIFGGTVDNNIRSGEMYRFQFSCYPKCTLHEDYGRLWESRQFCDVEFVLGEKEECVQGHVAIVTARSRWLRRKITQARERLAQKLEQEAAPVPREAPGVAAGGARPPLLHVAIREAEARPFEVLMQFLYTDKIKYPRKGHVEDVLLIMDVYKLALSFQLCRLEQLCRQYIEASVDLQNVLVVCESAARLQLSQLKEHCLNFVVKESHFNQVIMMKEFERLSSPLIVEIVRRKQQPPPRTPLDQPVDIGTSLIQDMKAYLEGAGAEFCDITLLLDGHPRPAHKAILAARSSYFEAMFRSFMPEDGQVNISIGEMVPSRQAFESMLRYIYYGEVNMPPEDSLYLFAAPYYYGFYNNRLQAYCKQNLEMNVTVQNVLQILEAADKTQALDMKRHCLHIIVHQFTKVSKLPTLWSLSQQLLLDIIDSLASHISDKQCAELGADI
notes: Stably expressed in U87 cells by lentivirus; also called LZTR1-FLAG-R810W; LZTR1 RW; not shown: FLAG tag
binding result: binds
